Laboratory results from patent publication US20220305082A1 (CENTRICSBIO, published 2022).

T1: mouse CD300c antigen (mouse)
T1 sequence (A2A7V7 whole entry, looked up): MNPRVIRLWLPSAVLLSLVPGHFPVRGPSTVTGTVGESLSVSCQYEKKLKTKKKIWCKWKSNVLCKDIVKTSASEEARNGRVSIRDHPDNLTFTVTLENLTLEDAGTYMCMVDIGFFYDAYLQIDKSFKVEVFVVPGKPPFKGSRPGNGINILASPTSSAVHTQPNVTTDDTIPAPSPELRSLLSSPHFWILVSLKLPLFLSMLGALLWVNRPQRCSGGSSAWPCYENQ

T2: CD300a antigen (12449-H08H, Sino Biological) (UniProt Q9UGN4 18-180)
T2 construct: Bought recombinant antigen
T2 sequence (looked up): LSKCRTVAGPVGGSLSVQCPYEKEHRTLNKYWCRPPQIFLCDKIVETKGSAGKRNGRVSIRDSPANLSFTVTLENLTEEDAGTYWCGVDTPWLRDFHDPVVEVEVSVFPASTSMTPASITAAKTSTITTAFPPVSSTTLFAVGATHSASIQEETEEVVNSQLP

B1: anti-CD300c monoclonal antibody CL10 (antibody, V domains shown)
VH: EVQLLESGGGLVQPGGSLRLSCAASGFTFSSYGMHWVRQAPGKGLEWVSAISGSGGSTYYADSVKGRFTISRDNSKNTLYLQMNSLRAEDTAVYYCASGYGLMDVWGQGTLVTVSS
VL: QSVLTQPPSASGTPGQRVTISCTRSSGIIASNYVQWYQQLPGTAPKLLIYRNNQRPSGVPDRFSGSKSGTSASLAISGLRSEDEADYYCSSYAGNNNLVFGGGTKLTVL
B2: anti-CD300c monoclonal antibody SL18 (antibody, V domains shown)
VH: RVQLLESGGGLVQPGGSLRLSCAASGFTFSDYHMHWVRQAPGKGLEWVSTISSSGGYTYYAESVKSRFTISRDNSKNTLYLQMNSLRAEDTAVYYCARSIRLPLDYWGQGTLVTVSS
VL: QSVLTQPPSASGTPGQRVTISCSGNNIGSKGVHWYQQLPGTAPKLLIYEDSKRPSGVRDRFSGSKSGTSASLAISGLRSEDEADYYCQSYDSTKGVVFGGGTKLTVL
B3: anti-CD300c monoclonal antibody CL7 (antibody, V domains shown)
VH: EVQLLESGGGLVQPGGSLRLSCAASGFTFSRYAMSWVRQAPGKGLEWVSAISGSGGSTYYADSVKGRFTISRDNSKNTLYLQMNSLRAEDTAVYYCARSSQGIFDIWGQGTLVTVSS
VL: QSVLTQPPSASGTPGQRVTISCSGNNIGTRRVHWYQQLPDTAPKLLIYSKNNRPSGVPDRFSGSKSGTSASLAISGLRSEDEADYYCAAWDDSLSGPVFGGGTKLTVL
notes: Full antibody from separate heavy and light chain vectors in 293T cells

Legend:
mouse CD300c antigen = target: T1, mouse CD300c antigen; experiment: cell-based or functional assay
[1] = target: T2, CD300a antigen (12449-H08H, Sino …); experiment: binding ELISA with CD300a antigen
Procedure: To identify the antigen-binding ability of the anti-CD300c monoclonal antibody produced in Example 1, binding ELISA was performed. Specifically, each of the CD300c antigen (11832-H08H, Sino Biological) or CD300a antigen (12449-H08H, Sino Biological) in a coating buffer (0.1 M sodium carbonate, pH 9.0) was dispensed onto an ELISA plate at a concentration of 8 μg/mL per well, and then reaction was allowed to proceed at room temperature for 3 hours so that the antigen was bound to the plate. Washing was performed 3 times using phosphate buffered saline-Tween 20 (PBST) to remove unbound antigen, and then 300 μL of PBST supplemented with 5% bovine serum albumin (BSA) was added to each well. Reaction was allowed to proceed at room temperature for 1 hour, and washing was performed again using PBST. Then, the anti-CD300c monoclonal antibody was diluted in quadruplicate and added thereto. Reaction was allowed to proceed for 1 hour at room temperature for antigen binding. After 1 hour, washing was performed 3 times using PBST to remove unbound anti-CD300c monoclonal antibody, and then 4 μg/mL of an antibody for detection (HRP conjugated anti-Fc IgG) was added. […] Then, 2 N sulfuric acid solution was added to terminate the development, and the absorbance was measured at 450 nm to identify the antibodies that specifically bind to the CD300c antigen. […]

Binder	cancer cell proliferation inhibitory effects (CT26 mouse colorectal cancer cell line, CCK-8), higher than the control group (mouse CD300c antigen) [%]	binding result [1]
B1	15	
B2	38	
B3	66	no binding (tested: 0.039, 0.63, and 10 µg/mL)
